From publication PMC7841161, “APE1 distinguishes DNA substrates in exonucleolytic cleavage by induced space-filling”

Columns and labels:
mAPE1 full-length [1] = target: T1, mAPE1 full-length (mouse, UniProt P28352 1-317); test: EMSA; 50 mM EDTA; complex visible at 1 uM mAPE1; EMSA: 50 mM EDTA, 20 mM Tris-HCl pH 7.0, 120 mM NaCl, on ice 10 min + 10 min, FAM-labeled substrates, TBE native gel; conditions: protein: recombinant, label: FAM
mAPE1 full-length [2] = target: T1, mAPE1 full-length; test: EMSA; 50 mM EDTA; similar to blunt; EMSA: 50 mM EDTA, 20 mM Tris-HCl pH 7.0, 120 mM NaCl, on ice 10 min + 10 min, FAM-labeled substrates, TBE native gel; conditions: protein: recombinant, label: FAM
[3] = target: mAPE1 in blunt-ended crystal (mouse, UniProt P28352 40-317); test: X-ray crystallography; product complex; EMSA: 50 mM EDTA, 20 mM Tris-HCl pH 7.0, 120 mM NaCl, on ice 10 min + 10 min, FAM-labeled substrates, TBE native gel; conditions: protein: recombinant; chain copies: 2; 2 copies of one strand, 1-nt 5' overhangs; central A-A from self-pairing
Chain of mAPE1 in blunt-ended crystal (P28352 40-317): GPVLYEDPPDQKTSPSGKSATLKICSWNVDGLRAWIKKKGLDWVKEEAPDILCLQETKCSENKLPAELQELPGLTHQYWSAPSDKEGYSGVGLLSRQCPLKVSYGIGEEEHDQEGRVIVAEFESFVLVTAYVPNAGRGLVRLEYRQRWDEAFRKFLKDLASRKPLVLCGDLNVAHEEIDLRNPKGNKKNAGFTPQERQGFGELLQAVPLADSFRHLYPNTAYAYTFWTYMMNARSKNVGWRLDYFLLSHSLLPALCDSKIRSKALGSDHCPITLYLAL

mAPE1 full-length [4] = target: T1, mAPE1 full-length; test: EMSA; 50 mM EDTA; weak low-MW complex seen; EMSA: 50 mM EDTA, 20 mM Tris-HCl pH 7.0, 120 mM NaCl, on ice 10 min + 10 min, FAM-labeled substrates, TBE native gel; conditions: protein: recombinant; label: FAM; 3 strands, nick between strands 1 and 2
mAPE1 full-length [5] = target: T1, mAPE1 full-length; test: EMSA; 50 mM EDTA; mostly complexed at 5 uM, stronger than blunt; EMSA: 50 mM EDTA, 20 mM Tris-HCl pH 7.0, 120 mM NaCl, on ice 10 min + 10 min, FAM-labeled substrates, TBE native gel; conditions: protein: recombinant; label: FAM; 5' overhang 20 nt on strand 2
mAPE1 full-length [6] = target: T1, mAPE1 full-length; test: EMSA; 50 mM EDTA; extra low-MW complex at 0.5 uM, higher affinity than ends; EMSA: 50 mM EDTA, 20 mM Tris-HCl pH 7.0, 120 mM NaCl, on ice 10 min + 10 min, FAM-labeled substrates, TBE native gel; conditions: protein: recombinant; label: FAM; 3 strands, 1-nt gap between strands 1 and 2
[7] = target: mAPE1 in recessed crystal (mouse, UniProt P28352 31-317); test: X-ray crystallography; product complex; EMSA: 50 mM EDTA, 20 mM Tris-HCl pH 7.0, 120 mM NaCl, on ice 10 min + 10 min, FAM-labeled substrates, TBE native gel; conditions: protein: recombinant; 2 copies of one strand, 2-nt 5' overhangs; central A-A from self-pairing
Chain of mAPE1 in recessed crystal (P28352 31-317): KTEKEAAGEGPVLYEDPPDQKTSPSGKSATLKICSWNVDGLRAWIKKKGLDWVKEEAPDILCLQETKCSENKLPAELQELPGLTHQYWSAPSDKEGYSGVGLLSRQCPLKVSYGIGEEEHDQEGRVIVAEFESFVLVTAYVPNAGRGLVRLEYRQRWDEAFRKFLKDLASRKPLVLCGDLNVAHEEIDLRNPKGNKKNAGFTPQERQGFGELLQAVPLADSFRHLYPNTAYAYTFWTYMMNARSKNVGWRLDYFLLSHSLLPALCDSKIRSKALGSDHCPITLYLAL

T1 sequence (P28352 whole entry): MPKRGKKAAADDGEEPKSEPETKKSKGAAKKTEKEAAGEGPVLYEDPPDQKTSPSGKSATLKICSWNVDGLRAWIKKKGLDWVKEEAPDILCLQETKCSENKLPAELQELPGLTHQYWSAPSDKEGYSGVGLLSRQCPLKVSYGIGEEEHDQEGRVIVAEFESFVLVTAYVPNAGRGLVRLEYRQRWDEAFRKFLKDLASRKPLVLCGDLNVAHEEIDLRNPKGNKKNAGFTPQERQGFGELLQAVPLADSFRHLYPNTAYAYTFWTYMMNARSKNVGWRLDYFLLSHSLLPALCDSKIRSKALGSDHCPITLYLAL

B1: recessed dsDNA 5 nt 5' overhang (dsDNA)
DNA 1: ACTGGACAAATACTCCGAGG
DNA 2: ATCACCCTCGGAGTATTTGTCCAGT
B1: binds (mAPE1 full-length [1]; 5' overhang 5 nt on strand 2).

B2: dsDNA 20 mer 2 nt mismatch (dsDNA)
DNA 1: ACTGGACAAATACTCCGAGG
DNA 2: AATCGGAGTATTTGTCCAGT
B2: binds (mAPE1 full-length [2]; 2 nt mismatch at 3' end of strand 1).

B3: blunt-ended dsDNA 20 bp (dsDNA)
DNA 1: ACTGGACAAATACTCCGAGG
DNA 2: CCTCGGAGTATTTGTCCAGT
B3: binds (mAPE1 full-length [1]; blunt).

B4: blunt-ended dsDNA product (crystal) (dsDNA)
DNA 1: CGTAATAC
DNA 2: CGTAATAC
B4: binds [3].

B5: dsDNA 20 mer 1 nt mismatch (dsDNA)
DNA 1: ACTGGACAAATACTCCGAGG
DNA 2: ACTCGGAGTATTTGTCCAGT
B5: binds (mAPE1 full-length [2]; 1 nt mismatch at 3' end of strand 1).

B6: nicked dsDNA 40 mer 5'-OH (dsDNA)
DNA 1: ACTGGACAAATACTCCGAGG
DNA 2: GTGATTAGTGAAGCGTGCTC
DNA 3: GAGCACGCTTCACTAATCACCCTCGGAGTATTTGTCCAGT
modifications: 5'-OH at nick
B6: binds (mAPE1 full-length [4]).

B7: recessed dsDNA 20 nt 5' overhang (dsDNA)
DNA 1: ACTGGACAAATACTCCGAGG
DNA 2: GAGCACGCTTCACTAATCACCCTCGGAGTATTTGTCCAGT
B7: binds (mAPE1 full-length [5]).

B8: 1-nt gapped dsDNA 40 mer, matched (dsDNA)
DNA 1: ACTGGACAAATACTCCGAGG
DNA 2: TGATTAGTGAAGCGTGCTC
DNA 3: GAGCACGCTTCACTAATCACCCTCGGAGTATTTGTCCAGT
modifications: 5'-OH or 5'-phosphate at gap margin (not stated which for EMSA)
B8: binds (mAPE1 full-length [6]).

B9: recessed dsDNA product (crystal) (dsDNA)
DNA 1: GCGTAATAC
DNA 2: GCGTAATAC
B9: binds [7].
